Here are results for 3 substances from patent publication US7514397.

The target in the assay is viral gp41 of HIV-1IIIB (HIV-1IIIB). As to the kind of experiment: cell-based or functional assay.
“M41-P, M41 fusion protein with an Ile to Pro mutation at position 578 (from UniProt P0AEX9 27-392; P03377 540-686)” had a Cell fusion (IC90) of 0.083 µM and an HIV infectivity (IC90) of 0.066 µM.

The substance “M41-PΔ178, M41-P fusion protein from which the DP-178 region has been deleted (gp41 540-642, Ile578Pro) (from UniProt P03377 540-642)” yielded a Cell fusion (IC90) above 50 µM and an HIV infectivity (IC90) above 8 µM.

In the case of “M41, maltose binding protein fusion with the extracellular domain of HIV-1 gp41 (540-686) (from UniProt P03377 540-686)”, the Cell fusion (IC90) was above 50 µM and the HIV infectivity (IC90) is above 16 µM.
